# Test results as given in patent US7799901B2, “Modulators of the function of FAS receptors and other proteins” (Yeda Research and Development Co. Ltd., priority 1995, dated 2010).
# T1: p55 TNF receptor (Homo sapiens, UniProt P19438)
# T1 construct: human p55 TNF receptor (p55-IC residues 206-426); expressed in transfected cells; host or cells: SFY526 yeast
# T1 sequence (P19438 235-455): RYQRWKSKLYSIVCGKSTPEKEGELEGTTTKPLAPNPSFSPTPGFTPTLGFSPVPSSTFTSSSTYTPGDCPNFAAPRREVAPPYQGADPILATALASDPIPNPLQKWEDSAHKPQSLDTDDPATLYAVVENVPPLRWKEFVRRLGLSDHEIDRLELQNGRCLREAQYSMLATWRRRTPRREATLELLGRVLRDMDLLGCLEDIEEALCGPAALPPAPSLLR
# Assays:
# p55 TNF receptor = molecular target: T1, p55 TNF receptor; test: Two-hybrid test of MORT-1 binding (FIG. 1), p55 TNF receptor; details: p55-IC residues 206-426, FIG. 1
# Description: To isolate proteins interacting with the intracellular domain of the FAS-R, the yeast two-hybrid system was used (Fields and Song, 1989). […] In this system, the genes for the candidate interacting proteins are cloned into separate expression vectors. In one expression vector, the sequence of the one candidate protein is cloned in phase with the sequence of the GAL4 DNA-binding domain to generate a hybrid protein with the GAL4 DNA-binding-domain, and in the other vector, the sequence of the second candidate protein is cloned in phase with the sequence of the GAL4 activation domain to generate a hybrid protein with the GAL4-activation domain. The two hybrid vectors are then co-transformed into a yeast host strain having a lacZ or HIS3 reporter gene under the control of upstream GAL4 binding sites. Only those transformed host cells (cotransformants) in which the two hybrid proteins are expressed and are capable of interacting with each other, will be capable of expressing the reporter gene. In the case of the lacZ reporter gene, host cells expressing this gene will become blue in color when X-gal is added to the cultures. […]
# In FIG. 1, there is depicted the interaction of the proteins encoded by the Gal4 DNA binding domain and activation-domain constructs (pGBT9 and pGAD-GH) within transfected SFY526 yeasts as assessed by β-galactosidase expression filter assay. […]
# [1] = tested on: p55-R-induced cytotoxicity in 293-EBNA cells; test: Death of 293-EBNA cells induced by over-expression of p55-R; assay type: cell-based, human; details: co-transfection
# Description: In brief, 293-EBNA cells, MCF7 human breast carcinoma cells and HeLa HtTA-1 cells were grown in Dulbecco's modified Eagle's minimal essential medium supplemented with 10% fetal calf serum, nonessential amino acids, 100 U/ml penicillin and 100 μg/ml streptomycin. Cell tissue culture dishes (5×10^5 293-EBNA cells, 3×10^5 s MCF7 cells or 3×10^5 HeLa cells in 6-cm dishes) were transiently transfected, using the calcium phosphate precipitation method, with the cDNAs of the indicated proteins together with the β-galactosidase expression vector. In the experiments presented in FIGS. 14A-D and 15, each dish was transfected with 3.5 μg of the indicated MACH construct and 1.5 μg of pSV-β-gal. In the experiments presented in FIGS. 16A-D and 17-19, each dish was transfected with 2.5 μg of the indicated MACH or MORT1 construct (or, as control, empty vector) and 1.5 μg of pSV-β-gal. The cells were rinsed 6 to 10 h after transfection. The 293-EBNA and MCF7 cells were incubated for a further 18 h without additional treatment. […] The extent of cell death at the end of the incubation periods was assessed by determination of β-galactosidase expression, as described by Kumar et al, 1994. […]
# In particular, FIGS. 16A-D show morphology of 293-EBNA cells in which cell death was induced by transient expression of a chimera comprised of the extracellular domain of the p55-R (amino acids 1-168) fused to the transmembrane and intracellular domains of Fas/APO1 (amino acids 153-319) (p55-Fas chimera) (FIGS. 16A and 16B), or by expression of the p55-R (FIGS. 16C and 16D), and of cells that were protected from these cytotoxic effects by their simultaneous transfection with MACHα1 (C360S) (FIGS. 16B and 16D). […] FIG. 17 illustrates the quantification of death induced in 293-EBNA cells by their transfection with p55-Fas chimera or with p55-R, together with an empty vector, a MORT1 deletion mutant lacking the MACH-binding region (MORT1 (92-208)), or MACHα molecules containing a nonfunctional CED3/ICE region. […] Data are from at least two independent experiments and are expressed as in FIGS. 14A-F and 15.
Molecule,binding to p55 TNF receptor in two-hybrid test (p55 TNF receptor),protection against p55-R-induced cytotoxicity [1]
"MORT-1: Mediator of Receptor-induced Toxicity; protein binding the intracellular domain of FAS-R, SEQ ID NO:2 (protein) VNQAPECRFGGGILGPLGKRRDLARASEPRTEGARRAGPQPRPLADPAMDPFLVLLHSVSSSLSSSELTELKFLCLGRVVKRKLERVQSGLDLFSMLLEQNDLEPGHTELLRELLASLRRHDLLRRVDDFEAGAAAGAAPGEEDLCAAFNVICDNVGKDWRRLARQLKVSDTKIDSIEDRYPRNLTERVRESLRIWKNTEKENATVAHLVGALRSCQMNLVADLVQEVQQARDLQNRSGAMSPMSWNSDASTSEAS",not,–
MACHα1 (C360S): MACHα1 mutant in which the catalytic cysteine Cys360 is replaced by Ser (protein) MDFSRNLYDIGEQLDSEDLASLKFLSLDYIPQRKQEPIKDALMLFQRLQEKRMLEESNLSFLKELLFRINRLDLLITYLNTRKEEMERELQTPGRAQISAYRVMLYQISEEVSRSELRSFKFLLQEEISKCKLDDDMNLLDIFIEMEKRVILGEGKLDILKRVCAQINKSLLKIINDYEEFSKERSSSLEGSPDEFSNGEELCGVMTISDSPREQDSESQTLDKVYQMKSKPRGYCLIINNHNFAKAREKVPKLHSIRDRNGTHLDAGALTTTFEELHFEIKPHDDCTVEQIYEILKIYQLMDHSNMDCFICCILSHGDKGIIYGTDGQEAPIYELTSQFTGLKCPSLAGKPKVFFIQASQGDNYQKGIPVETDSEEQPYLEMDLSSPQTRYIPDEADFLLGMATVNNCVSYRNPAEGTWYIQSLCQSLRERCPRGDDILTILTEVNYEVSNKDDKKNMGKQMPQPTFTLRKKLVFPSD,–,protected
